± gives the standard error. For some of these results: This sample holds only a part of the variants without activity.
B1: glmS ribozyme (parent)
chain: AUAAAAGCGCCAGAACUACAGAAAUGUAGUUGACGAGGAGGAGGUUUAUCGAAUUUUCGGCGGAUGCCUCCAAA

Tests used:
Details in all cases: with glucosamine-6-phosphate
glucosamine-6-phosphate [1] = variants of: B1; experiment: kcat; higher = faster cleavage; RNA array
Summary of the method: (§1)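 Weighted Michaelis–Menten fits across concentrations supplied kcat and KM, based on kobs from one- or two-exponential decay fits to normalised per-tile medians. The data came from barcoded ribozyme variants transcribed in situ by E. coli RNA polymerase on sequenced MiSeq chips and tracked at 37 °C by a hybridised Cy3 probe. Glucosamine-6-phosphate (40 μM to 10 mM) in HEPES/KCl/Mg(OAc)2 buffer was flowed in.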

glucosamine-6-phosphate [2] = variants of: B1; experiment: self-cleavage kobs at 640 uM GlcN6P; higher = faster cleavage; RNA array
Summary of the method: as §1

glucosamine-6-phosphate [3] = variants of: B1; experiment: self-cleavage kobs at 2500 uM GlcN6P; higher = faster cleavage; RNA array
Summary of the method: as §1

glucosamine-6-phosphate [4] = variants of: B1; experiment: self-cleavage kobs at 10000 uM GlcN6P; higher = faster cleavage; RNA array
Summary of the method: as §1

glucosamine-6-phosphate [5] = variants of: B1; experiment: KM; higher = weaker cofactor use; RNA array
Summary of the method: as §1

glucosamine-6-phosphate [6] = variants of: B1; experiment: self-cleavage kobs at 40 uM GlcN6P; higher = faster cleavage; RNA array
Summary of the method: as §1

glucosamine-6-phosphate [7] = variants of: B1; experiment: self-cleavage kobs at 160 uM GlcN6P; higher = faster cleavage; RNA array
Summary of the method: as §1

| Variant | kcat (glucosamine-6-phosphate [1]) [s⁻¹] | self-cleavage kobs at 640 uM GlcN6P (glucosamine-6-phosphate [2]) [s⁻¹] | self-cleavage kobs at 2500 uM GlcN6P (glucosamine-6-phosphate [3]) [s⁻¹] | self-cleavage kobs at 10000 uM GlcN6P (glucosamine-6-phosphate [4]) [s⁻¹] | KM (glucosamine-6-phosphate [5]) [µM] | self-cleavage kobs at 40 uM GlcN6P (glucosamine-6-phosphate [6]) [s⁻¹] | self-cleavage kobs at 160 uM GlcN6P (glucosamine-6-phosphate [7]) [s⁻¹] |
| --- | --- | --- | --- | --- | --- | --- | --- |
| U57C C67U | 6.51e-05 ± 8.2e-06 | 3.88e-05 ± 8.6e-06 | 3.71e-05 ± 7.6e-06 | 6.33e-05 ± 5.1e-06 |  |  |  |
| A39G G66U | 0.00533 ± 0.00016 | 0.00133 ± 0.00029 | 0.00285 ± 0.0009 | 0.00451 ± 0.00097 | 1960 ± 79 | 0.000107 ± 1.9e-05 |  |
| U47C C71U | 0.00356 ± 0.00095 | 0.00148 ± 0.0002 | 0.00219 ± 0.00045 | 0.00312 ± 0.00038 | 1310 ± 520 | 0.000124 ± 1.4e-05 | 0.000184 ± 6.7e-05 |
| U31A U55A | 0.0251 ± 0.0036 | 0.00452 ± 0.0014 | 0.00953 ± 0.0034 | 0.0182 ± 0.0035 | 3810 ± 790 |  | 0.000953 ± 0.00022 |
| G37A U45G | 0.00169 ± 0.00018 | 0.000349 ± 6.9e-05 | 0.000738 ± 0.00016 | 0.00132 ± 0.00019 | 2870 ± 530 |  | 8.96e-05 ± 3.2e-05 |
| A36C U55A | < 1e-05 |  |  |  |  |  | < 1e-05 |
| C11U G40C | 0.000197 ± 1.3e-05 | 3.93e-05 ± 1.6e-05 | 8.9e-05 ± 1.4e-05 | 0.000153 ± 1.9e-05 | 2960 ± 470 |  |  |
| G40A U65A | 0.00131 ± 0.0003 | 0.000213 ± 4.3e-05 | 0.000615 ± 0.00011 | 0.00106 ± 0.00012 | 2690 ± 980 | 3.89e-05 ± 8.4e-06 | 7.08e-05 ± 1.3e-05 |
| A48U U49G | 1.55e-05 ± 3.7e-06 |  |  |  |  | < 1e-05 |  |
| G29A U30A | 0.00133 ± 0.00052 | 0.000149 ± 2.4e-05 | 0.000752 ± 0.00014 | 0.000862 ± 0.00016 |  | 2.98e-05 ± 1.5e-05 | 5.7e-05 ± 2e-05 |
| C16A G32U | 0.000568 ± 9.6e-05 | 5.63e-05 ± 1e-05 | 0.000143 ± 2.8e-05 | 0.000363 ± 6.7e-05 | 6390 ± 1500 |  |  |
| C61A U69G | < 1e-05 |  |  |  |  | < 1e-05 |  |
| U55A C70G | 0.000118 ± 1.5e-05 | 0.000148 ± 1.6e-05 | 0.000117 ± 1.2e-05 | 0.000101 ± 9.9e-06 |  | 3.74e-05 ± 7.5e-06 | 0.000102 ± 1.2e-05 |
| C11U A14U | 0.00134 ± 0.00035 | 0.000266 ± 3.5e-05 | 0.00104 ± 0.00013 | 0.000984 ± 0.00014 | 2130 ± 810 |  | 9.95e-05 ± 1.2e-05 |
| A15C U30C | 0.000215 ± 7.8e-05 | 8.27e-05 ± 2.3e-05 | 8.21e-05 ± 1.5e-05 | 0.000177 ± 2.6e-05 |  |  |  |
| G41C A64G | 0.000146 ± 1.2e-05 | 3.48e-05 ± 8.4e-06 | 0.000107 ± 1.8e-05 | 0.000122 ± 8.8e-06 | 1760 ± 510 |  |  |

| Variant | kcat (glucosamine-6-phosphate [1]) [s⁻¹] | self-cleavage kobs at 640 uM GlcN6P (glucosamine-6-phosphate [2]) [s⁻¹] | self-cleavage kobs at 2500 uM GlcN6P (glucosamine-6-phosphate [3]) [s⁻¹] | self-cleavage kobs at 10000 uM GlcN6P (glucosamine-6-phosphate [4]) [s⁻¹] | KM (glucosamine-6-phosphate [5]) [µM] | self-cleavage kobs at 40 uM GlcN6P (glucosamine-6-phosphate [6]) [s⁻¹] | self-cleavage kobs at 160 uM GlcN6P (glucosamine-6-phosphate [7]) [s⁻¹] |
| --- | --- | --- | --- | --- | --- | --- | --- |
| U31C G66A | 0.00283 ± 0.00065 | 0.000724 ± 8.4e-05 | 0.00127 ± 0.00017 | 0.00266 ± 0.00027 | 2030 ± 750 | 6.95e-05 ± 9.4e-06 | 0.000128 ± 4.7e-05 |
| G38A C70G | 1.82e-05 ± 1.9e-06 |  |  |  |  |  |  |
| A42U U55A | 0.000213 ± 6.1e-06 | 7.19e-05 ± 1.1e-05 | 0.000143 ± 2.6e-05 | 0.000188 ± 2.2e-05 | 1260 ± 86 |  |  |
| A12G U30G | 8.75e-05 ± 7.1e-06 |  | 5.48e-05 ± 8.9e-06 | 7.28e-05 ± 7.5e-06 | 1830 ± 510 | < 1e-05 |  |
| A14G G29C U56A | 0.00138 ± 0.00036 | 0.000364 ± 8.4e-05 | 0.000647 ± 0.00014 | 0.00136 ± 0.00029 | 1960 ± 970 | 3.76e-05 ± 1.8e-05 |  |
| U47C C70G | 0.000161 ± 3.3e-05 | 0.000172 ± 3.5e-05 | 0.00012 ± 3e-05 | 0.000256 ± 0.0001 |  |  | 7.93e-05 ± 2.2e-05 |
| G37C C68U | 1.59e-05 ± 1.1e-06 |  |  |  |  | < 1e-05 |  |
| G29U U69G | 5.24e-05 ± 1.4e-05 | 7.49e-05 ± 1.7e-05 | 5.06e-05 ± 1.2e-05 |  |  |  | 5.79e-05 ± 1.4e-05 |
| C16G U47C | 0.00027 ± 0.00013 | 0.000231 ± 7.9e-05 | 0.000192 ± 5.1e-05 |  |  |  |  |
| C10U A33U U54C | 4.81e-05 ± 4.1e-06 |  |  | 3.5e-05 ± 1.5e-05 | 3720 ± 750 |  |  |
| A33G G35A G37A C71U | 1.55e-05 ± 4.5e-06 |  |  |  |  |  |  |
| C61U G62A | < 1e-05 | < 1e-05 |  | < 1e-05 |  |  | < 1e-05 |
| G38C C67A | < 1e-05 |  |  |  |  | < 1e-05 | < 1e-05 |
| A14G G41C | 0.00141 ± 0.00048 | 0.00022 ± 5.1e-05 | 0.000737 ± 0.00013 | 0.00105 ± 0.00013 |  | 4.74e-05 ± 9.7e-06 | 4.38e-05 ± 1.7e-05 |
| A15C | 0.011 ± 0.00069 | 0.00248 ± 0.0001 |  | 0.00932 ± 0.00026 | 1940 ± 150 | 0.000227 ± 4.1e-06 | 0.00074 ± 5.5e-05 |
| C10A U65G | < 1e-05 | < 1e-05 | < 1e-05 | < 1e-05 |  | < 1e-05 |  |
